Reference: the RNAGym collection of RNA variant scans (doi:10.1073/pnas.2313332121)
This sample holds only a part of the variants without activity.

B1: TPR 5TU (parent)
chain: GGAUCUUCUCGAUCUAACAAAAAAGACAAAUCUGCCACAAAGCUUGAGAGCAUCUUCGGAUGCAGAGGCGGCAGCCUUCGGUGGCGCGAUAGCGCCAACGUUCUCAACUAUGACACGCAAAACGCGUGCUCCGUUGAAUGGAGUUUAUCAUG

Variants of: B1
Assay: polymerase ribozyme fitness, log enrichment relative to wild type (log ratio); higher = more active; in vitro selection for triplet polymerase activity
Summary of the method: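 To select mutant libraries of each subunit of a heterodimeric triplet polymerase ribozyme, built by PCR and transcribed, each was annealed with a biotinylated primer, partner subunit and triplets, then incubated frozen at −7 °C. Extended constructs were gel-excised, captured on streptavidin beads and amplified by RT-PCR, in one round carried out in triplicate. Illumina sequencing of input and output libraries kept genotypes with ≥10 input reads and ≥1 read per output. Fitness is the base-2 logarithm of genotype enrichment relative to wild-type enrichment, from inverse-variance-weighted replicate averages.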

Row | Variant | polymerase ribozyme fitness (log ratio)
1 | GGAUCUUCUCGAUCUAACAAAAUAGACAAAUCUGCCACAGAGCUUGAGAGCAUCUUCGGAUGCAGAGGCGGCAGCCAUCGGUGACGCGAUAGCGCCAACGUUCUCAACUAUGACACGCAAAACGCGUGCUCCGUUGAAUGGAGUUGAUCAUG [A23U A40G U77A G84A U146G] | ≤ -4.2
2 | GGAUCUUCUCGAUCUAACAAAAUAGACACAUCUGCCACAAAGCUUGAGAGCAUCUUCGGAUGCAGAGGCGGCAGCCUUCGGUGGCGCGAUAGCGCCAACGUUCUCAACUAUGACACGCUAAACGCGUGCUCCGUUGAAUGGAGUUUAUCAUG [A23U A29C A119U] | ≤ -4.2
3 | GGAUCUUCUCGAUCUAACAAAAUAGACAAAUCUGCCACAAAGCUUGAGAGCCUCAUCGGAUGCAGAGGCGGCAGCCUUCGUUGACGCGAUAGCGCCAAAGUUCUCAACUAUGACACGCAAAACGCGCGCUCCGUUGAAUGGAGUGUAUCAUG [A23U A52C U55A G81U G84A C99A U127C U145G] | ≤ -4.2
4 | GGAUCUUCUCGAUCUAACAAAAGAGACAAAUCUGCCACAAAGCUUGAGAGCAUCUUCGGAUGCAGAGGCGGCAGCCUUCGGUGGCGCGAUAGCGCCAACGUUCUCAACUAUGACACGCAAAACGCGUGCCCCGUUGAUUGGAGUUUAUCAUG [A23G U130C A138U] | -4.2
5 | GGAUCUUCUCGAUCUAACAAAAUUGACAAAUCUGCCACAAAGCUUGAGAGCAUCUUCGGAUGCAGAGGCGGCAGCCUUCGGUGGCGCGAUAGCGCCAACGUUCUCAACUAUGACACGCAAAACGCGUGCUCCGUUGAAUGGAGUUUAUCAUG [A23U A24U] | -4.12
6 | GGAUCUUCUCGAUCUAACAAAAUAGACAAAUCUGCCACAAAGAUUGAGAGCAUCUUCGGAUGCAGAGGGGGCAGCCUUCGGUGGCGCGAUAGCGCCAAGGUUCUCAACUAUGACACGCAAAACGCGUGCUCCGUUGAAAGGAGAUUAUCAUG [A23U C43A C69G C99G U139A U144A] | ≤ -4.2
7 | GGAUCUUCUCGAUCUAACAAAAUAGACAAAUCUGCCACAAAGCUUGAGAGCAUCUUCGGAUGCCGAGCCGGCAGCCUUCGGUGGCGCGAUAGCGCCAACGUUCUCAACUAUGACACGCAAAACGCGUGCUCCGUUGAAUGGAGUUUAUCAUG [A23U A64C G68C] | ≤ -4.2
8 | GGAUCUUCUCGAUCUAACAAAAUAGUUAAAUCUGCCACAAUGCUUGAGAGCAUCUUCGGAUGCAGAGGCGGCAGCCUUCGGUGGCGCGAUAGUGACAACGUUCUCAACUAUGACACGCAAAACGCGUGCUCCGUUGAAUGGAGUUUAUCAUG [A23U A26U C27U A41U C93U C95A] | ≤ -4.2
9 | GGAUCUUCUCGAUCUAACAAAAUCGACAAAUCUGCCACAAAGCUUGAGAGUAACUUCGGAUGCAGAGGCGGCAGCCUUCGGUGGCGCGAUAGCGCCAUCGUUCUCAACUAUGACACGCAAAACGCGUGCUCCGUUGAAUGGAGUUUAUCAUG [A23U A24C C51U U53A A98U] | ≤ -4.2
10 | GGAUCUUCUCGAUCUAACAAAAUAGACAAAUCUGCCUCAAAGCUUGAGAGCAUCUUCGGAUGCAGAGGCGGCAGCCUUCGGUGGCGCGAUAGCGCCUACGUUCUCAACUACGACACGCAAAACGCGUGCUCCGUUGAAUGGAGUUUAUCAUG [A23U A37U A97U U111C] | ≤ -4.2
11 | GGAUCUUCUCGAUCUAACAAAAUAGACAAAUCUGCCACAAAGUUUGAGAGCAUCUUCGGAGGCAGAGGCGGCAGCCUUCGGUGUCGCGCUAGCGCCAACGUUCUCAAGUAUGACACGCAAAACGCGUGCUCCGUUGAAUGGAGUAUAUCAUG [A23U C43U U61G G84U A89C C108G U145A] | ≤ -4.2
12 | GGAUCUUCUCGAUCUAACAAAAUAGACAAAUCUGCCACAAAGCUUGAGAGUAUCUUCGGAUGCAGAGGCGGCAGCCUUCGGUGGCGCGAUAGUGCCAACUUUCUCAACUAUGACACGCAAAAGGCGUGCUCCGUUGAAUGGAGUUUAUCAUG [A23U C51U C93U G100U C123G] | ≤ -4.2
13 | GGAUCUUCUCGAUCUAACAAAAUCUACAAAUCUGCCACAAAGCUUGAGAGCAUCUUCGGAUGCAGAGGCGGCAGCCUUCGGUGGCGCGAUAGCCCCAACGUUCUCAACUAUGACACGCCAAAAGCGUGCUCCGUUGAAUGCAGUUUAUCAUG [A23U A24C G25U G94C A119C C123A G141C] | ≤ -4.2
14 | GGAUCUUCUCGAUCUAACAAAAUAGACAAAUCUGGCACAAAGCUUGAGAGCAUCUUCGGAUGCAGAGGCGGCUGCCUUCGAUGGCGCGAUAGCGCCAACGUUCUCAACGAUGACACGCAAAACGCGUGCUCCGUUGAAUGGAGUUUAUCAUG [A23U C35G A73U G81A U109G] | ≤ -4.2
15 | GGAUCUUCUCGAUCUAACAAAAUAGCCAAUUCUGCCACAAAGCUUGAGAGCAUCUACGGCUGCAGAGGCGGCAGCCUUCGGUGGCUCCAUAGCGGCAACGUUCUCAACUAUGACACGCAAAACUCGUGCUCCGUUGUAUGGAGUUUACCAUG [A23U A26C A30U U56A A60C G86U G88C C95G G124U A137U U148C] | ≤ -4.2
16 | GGAUCUUCUCGAUCUAACAAAAUAGACAAAUCUGCCAAAAAGCUGGAGACCAUCUACGGAUGCAGAGGCGGCAGCCUUCGGUGGCGCGAUAGGGCCAACGUUCUCAACUAUGACACACAAAACGCGUGCUCCGUUGAAUGGAGUUUAUCAUG [A23U C38A U45G G50C U56A C93G G117A] | ≤ -4.2
17 | GGAUCUUCUCGAUCUAACAAAAUAGACACAUCUGCCACAAAGCUUGAGAGUAUCUUCGGAUGCAGAGUCGGGAGCCUUCGGUGGCGCGAUAGCCCCAACGUUCUCAACUAUGACACGCAAAACGCGUGCUCCGUUAAAUGGAGUUUCUCAUG [A23U A29C C51U G68U C72G G94C G136A A147C] | ≤ -4.2
18 | GGAUCUUCUCGAUCUAACAAAAUAGACAAAUCUGCCACAAAGCUUGAGAGCGUCUUCGGAUGCAGAGGCGGCAGCCUUCGGUGGUGCGGUAGCGCCAACGUUCUCGACUAUGACACGCAAAACGCGUGCUCCGUUGAAUGUAGUUUAGCAUG [A23U A52G C85U A89G A106G G141U U148G] | ≤ -4.2
19 | GGAUCUUCUCGAUCUAACAAAAUAGACAAGUCUGCCACAACGCUUGGGAGCAGCUACGGAUGCAGAGGCGGCAGACUUCGGUGGCGCGAUAGUGCCAACGUUCUCAAGUAUGACACGCAAAACGCGUGCUCCCUUAAAUGGAGUUUAUCAUG [A23U A30G A41C A47G U53G U56A C75A C93U C108G G133C G136A] | ≤ -4.2
